Experimental data published in patent publication US20190336582A1 (published 2019).

Biological target: T1, IL-10 receptor (IL-10R1 and IL-10R2 receptor chains) on mouse cells (mouse, UniProt Q61727 17-575; Q61190 20-349)
T1 sequence (looked up) 1: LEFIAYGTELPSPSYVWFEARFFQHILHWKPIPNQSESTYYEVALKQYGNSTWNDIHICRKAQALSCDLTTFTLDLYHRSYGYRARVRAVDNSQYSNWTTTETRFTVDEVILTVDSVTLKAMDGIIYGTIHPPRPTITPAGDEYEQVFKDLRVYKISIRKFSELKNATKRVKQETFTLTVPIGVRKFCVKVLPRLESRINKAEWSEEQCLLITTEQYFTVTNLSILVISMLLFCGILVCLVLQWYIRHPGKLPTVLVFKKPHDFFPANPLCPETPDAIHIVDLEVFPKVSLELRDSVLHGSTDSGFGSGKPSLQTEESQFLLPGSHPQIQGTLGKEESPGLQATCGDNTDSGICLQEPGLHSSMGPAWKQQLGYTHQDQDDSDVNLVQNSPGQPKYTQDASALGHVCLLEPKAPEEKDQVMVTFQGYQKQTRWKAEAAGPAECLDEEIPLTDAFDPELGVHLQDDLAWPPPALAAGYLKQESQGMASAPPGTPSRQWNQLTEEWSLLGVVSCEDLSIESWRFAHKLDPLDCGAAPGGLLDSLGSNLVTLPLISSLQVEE
T1 sequence (looked up) 2: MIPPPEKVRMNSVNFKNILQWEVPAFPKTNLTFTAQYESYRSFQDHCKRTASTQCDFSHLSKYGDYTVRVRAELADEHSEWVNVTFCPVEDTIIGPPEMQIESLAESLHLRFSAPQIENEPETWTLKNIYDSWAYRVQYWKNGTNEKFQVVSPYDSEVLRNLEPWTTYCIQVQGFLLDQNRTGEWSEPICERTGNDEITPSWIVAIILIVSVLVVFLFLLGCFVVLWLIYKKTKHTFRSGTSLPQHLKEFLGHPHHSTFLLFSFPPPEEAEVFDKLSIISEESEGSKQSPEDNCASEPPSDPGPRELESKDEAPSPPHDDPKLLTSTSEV
Assay: cell-based or functional assay

EC50, proliferation of mouse mast cell line MC/9: 5 pM
IC50, inhibition of TNFα production in LPS-stimulated C57BL/6 mouse PBMCs (PBMC + LPS): 0.45 pM
B1: Human wild-type IL-10 (wtIL-10) (ligand)
chain: SPGQGTQSENSCTHFPGNLPNMLRDLRDAFSRVKTFFQMKDQLDNLLLKESLLEDFKGYLGCQALSEMIQFYLEEVMPQAENQDPDIKAHVNSLGENLKTLRLRLRRCHRFLPCENKSKAVEQVKNAFNKLQEKGIYKAMSEFDIFINYIEAYMTMKIRN
